According to publication PMC11988454, “Discovery of synthetic small molecules targeting the central regulator of Salmonella pathogenicity” (Science Advances, 2025):

Assays:
HilD Y212A = HilD Y212A (Salmonella enterica serovar Typhimurium, UniProt P0CL08 1-309, Y212A); test: EMSA; no C26; affinity comparable to WT; settings: protein: recombinant; tags: His6-SUMO removed by SUMO protease; chain copies: 2; label: 5'-Cy5 on strand 1; blunt
HilD L45A = HilD L45A (Salmonella enterica serovar Typhimurium, UniProt P0CL08 1-309, L45A); test: EMSA; no C26; affinity comparable to WT; settings: protein: recombinant; tags: His6-SUMO removed by SUMO protease; chain copies: 2; label: 5'-Cy5 on strand 1; blunt
HilD I100A = HilD I100A (Salmonella enterica serovar Typhimurium, UniProt P0CL08 1-309, I100A); test: EMSA; no C26; affinity comparable to WT; settings: protein: recombinant; tags: His6-SUMO removed by SUMO protease; chain copies: 2; label: 5'-Cy5 on strand 1; blunt
HilD Y46A = HilD Y46A (Salmonella enterica serovar Typhimurium, UniProt P0CL08 1-309, Y46A); test: EMSA; no C26; affinity comparable to WT; settings: protein: recombinant; tags: His6-SUMO removed by SUMO protease; chain copies: 2; label: 5'-Cy5 on strand 1; blunt
HilD = target: T1, HilD (Salmonella enterica serovar Typhimurium, UniProt P0CL08 1-309); test: EMSA; no C26; settings: protein: recombinant; tags: His6-SUMO removed by SUMO protease; chain copies: 2; label: 5'-Cy5 on strand 1; blunt
T1 sequence: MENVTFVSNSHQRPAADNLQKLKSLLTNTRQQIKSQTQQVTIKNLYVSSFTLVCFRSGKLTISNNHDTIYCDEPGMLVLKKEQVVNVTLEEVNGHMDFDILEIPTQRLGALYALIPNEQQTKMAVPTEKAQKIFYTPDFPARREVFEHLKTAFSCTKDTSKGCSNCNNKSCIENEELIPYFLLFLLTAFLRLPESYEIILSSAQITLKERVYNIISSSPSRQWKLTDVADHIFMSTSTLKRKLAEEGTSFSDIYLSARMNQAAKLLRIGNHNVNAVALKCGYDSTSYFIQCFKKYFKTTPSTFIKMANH

HilC = target: T2, HilC (Salmonella enterica serovar Typhimurium, UniProt E1WAB2 1-295); test: EMSA; no C26; settings: protein: recombinant; tags: N-terminal His6-TEV, cleaved by TEV protease; chain copies: 2; label: 5'-Cy5 on strand 1; blunt
T2 sequence: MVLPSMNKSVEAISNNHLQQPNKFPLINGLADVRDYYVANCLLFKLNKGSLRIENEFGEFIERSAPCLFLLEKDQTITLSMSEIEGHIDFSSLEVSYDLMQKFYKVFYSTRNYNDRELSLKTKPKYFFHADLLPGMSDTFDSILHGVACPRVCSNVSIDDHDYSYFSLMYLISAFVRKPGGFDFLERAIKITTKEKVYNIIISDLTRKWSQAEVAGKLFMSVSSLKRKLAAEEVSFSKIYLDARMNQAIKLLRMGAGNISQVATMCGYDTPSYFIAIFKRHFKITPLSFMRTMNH

Measured: binding result

B1: PhilA A1 62 bp (dsDNA)
DNA 1: GGGAGTAAAGAAAAGACGATATCATTATTTTGCAAAAAAATATAAAAATAAGCGCACCATTA
DNA 2: TAATGGTGCGCTTATTTTTATATTTTTTTGCAAAATAATGATATCGTCTTTTCTTTACTCCC
binds: all assays above
